In test [1] the target is T1, recombinant human EpCAM extracellular domain (human, UniProt P16422 24-265).
T1 construct: extracellular domain; Plate-coated antigen of the ELISAs; also called human EpCAM ECD; recombinant EpCAM antigen
T1 sequence (looked up): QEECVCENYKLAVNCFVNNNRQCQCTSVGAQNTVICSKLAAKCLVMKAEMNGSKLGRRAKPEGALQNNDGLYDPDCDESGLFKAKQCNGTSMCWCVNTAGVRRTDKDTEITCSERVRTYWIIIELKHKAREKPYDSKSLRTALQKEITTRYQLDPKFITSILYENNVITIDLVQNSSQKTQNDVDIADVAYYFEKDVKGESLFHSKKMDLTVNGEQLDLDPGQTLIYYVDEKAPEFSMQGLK
Put plainly: ELISA, human EpCAM, pH 6.0. The method, then:
(§1) The binding activities of the humanized conditionally active anti-EpCAM antibodies to human EpCAM were measured by ELISA, using the template antibody BAP-1-5-01-06, as a control. The EC50 values of the humanized conditionally active anti-EpCAM antibodies for binding to human EpCAM at pH 6.0 and pH 7.4 are summarized in Table 5.
(§2) The ELISA assay was performed using the following protocol: [0388] 1) Coat ELISA plates with 100 μL of 0.5 μg/mL (06_20_17 and 06_28_17 Experiments) or 1 μg/mL (07_06_17 and 07_11_17 Experiments) recombinant EpCAM antigen in carbonate-bicarbonate coating buffer [0389] 2) Cover plates with sealing film and incubate overnight at 4° C. [0390] 3) Decant plates and tap out residual liquid on a stack of paper towels [0391] […] 5) Add 200 μL of various pH incubation buffers to the wells according to the sample map.
A general note: An ELISA detects its analyte on a solid surface through an enzyme-linked reagent.

In test [2] the target is T2, cyno EpCAM (recombinant, ELISA antigen) (cynomolgus monkey).
T2 construct: extracellular domain; also called cynomolgus EpCAM extracellular domain
T2 sequence (Q1WER1 24-265): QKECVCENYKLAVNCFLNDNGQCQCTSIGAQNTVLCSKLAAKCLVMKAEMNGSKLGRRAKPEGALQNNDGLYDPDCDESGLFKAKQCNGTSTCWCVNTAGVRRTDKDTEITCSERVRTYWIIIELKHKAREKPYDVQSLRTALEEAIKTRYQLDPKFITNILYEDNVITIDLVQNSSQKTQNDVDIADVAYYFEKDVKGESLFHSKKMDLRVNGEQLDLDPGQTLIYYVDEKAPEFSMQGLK
The test is described as follows: ELISA with pH titration, cyno EpCAM. The method, then: The binding activities of the humanized conditionally active anti-EpCAM antibodies to cyno EpCAM with pH titration was similarly measured by ELISA.
as §2

In test [3] the target is T2, cyno EpCAM (recombinant, ELISA antigen). Put plainly: ELISA, cyno EpCAM, pH 6.0. The method, then: (§3) The binding activities of the humanized conditionally active anti-EpCAM antibodies to cyno EpCAM were similarly measured. The EC50 for binding to the cyno EpCAM at pH 6.0 and pH 7.4 for the humanized conditionally active anti-EpCAM antibodies are summarized in Table 7.
as §2

For test [4], the target named is T1, recombinant human EpCAM extracellular …. Put plainly: ELISA, human EpCAM, pH 7.4. The method, then: as §1, §2
The target is the same in test [5]. Put plainly: ELISA with pH titration, human EpCAM. The method, then: The binding activities of the humanized conditionally active anti-EpCAM antibodies to human EpCAM with pH titration were also measured by ELISA.
as §2

In test [6] the target is T2, cyno EpCAM (recombinant, ELISA antigen). The test is described as follows: ELISA, cyno EpCAM, pH 7.4. How it is done:
as §3, §2

Test [7] addresses T3, cyno EpCAM expressed on 293 cells (cynomolgus monkey).
T3 construct: whole, on cells; also called 293 cells expressing cyno EpCAM
The test is described as follows: FACS on 293 cells expressing cyno EpCAM, pH 7.4. How it is done: (§4) A similar FACS analysis was also carried out using 293 cells expressing cyno EpCAM. […] The EC50 values for binding to the 293 cells expressing cyno EpCAM by the humanized conditionally active anti-EpCAM antibodies are summarized in Table 11.

Test [8] deals with T4, human EpCAM expressed on cells (CHO, Colo205, 293) (human, UniProt P16422 24-314).
T4 construct: whole, on cells; also called CHO cells expressing human EpCAM; Colo205 cells expressing human EpCAM
T4 sequence (looked up): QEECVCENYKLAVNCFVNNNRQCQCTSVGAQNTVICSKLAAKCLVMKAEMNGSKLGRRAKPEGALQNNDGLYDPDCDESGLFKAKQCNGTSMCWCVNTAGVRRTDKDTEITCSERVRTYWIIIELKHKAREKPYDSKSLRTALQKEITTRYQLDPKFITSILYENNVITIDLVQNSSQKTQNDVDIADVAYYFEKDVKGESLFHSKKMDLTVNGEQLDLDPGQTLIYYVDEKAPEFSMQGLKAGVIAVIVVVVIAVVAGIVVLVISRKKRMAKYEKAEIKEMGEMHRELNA
Put plainly: FACS on Colo205 cells expressing human EpCAM, pH 6.0. The method, then: (§5) Binding activities of the humanized conditionally active anti-EpCAM antibodies to Colo205 cells expressing human EpCAM were measured by FACS at pH 6.0 and pH 7.4. […] The EC50 values for binding to the Colo205 cells expressing human EpCAM by the humanized conditionally active anti-EpCAM antibodies are summarized in Table 9.

Test [9] addresses T4, human EpCAM expressed on cells (CHO, …). Put plainly: FACS on Colo205 cells expressing human EpCAM, pH 7.4. How it is done: as §5
For test [10], the target named is T3, cyno EpCAM expressed on 293 cells. Put plainly: FACS on 293 cells expressing cyno EpCAM, pH 6.0. The method, then: as §4
Test [11] addresses T4, human EpCAM expressed on cells (CHO, …). The test is described as follows: FACS on 293 cells expressing human EpCAM, pH 7.4. How it is done:
(§6) A similar FACS analysis was also carried out using 293 cells expressing human EpCAM. […] The EC50 values for binding to the 293 cells expressing human EpCAM by the humanized conditionally active anti-EpCAM antibodies are summarized in Table 10.

For test [12] the target is unchanged. Put plainly: FACS on 293 cells expressing human EpCAM, pH 6.0. How it is done:
as §6

In test [13] the target is T5, chimeric human/mouse EpCAM-ECD 1 (Homo sapiens (Human), UniProt P16422 24-265).
T5 construct: also called ch1EpCAM-his; chimeric EpCAM-ECD 1
T5 chain: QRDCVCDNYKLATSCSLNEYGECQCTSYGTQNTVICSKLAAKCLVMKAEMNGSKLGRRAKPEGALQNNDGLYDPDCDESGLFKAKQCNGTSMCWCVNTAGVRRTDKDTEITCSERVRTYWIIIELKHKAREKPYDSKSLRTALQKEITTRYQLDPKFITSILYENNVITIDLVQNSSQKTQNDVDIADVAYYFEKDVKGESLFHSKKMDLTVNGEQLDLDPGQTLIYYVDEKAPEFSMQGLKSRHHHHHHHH
The test is described as follows: ELISA on purified His-tagged ECDs. An excerpt: (§7) Human, mouse and the four chimeric EpCAM extracellular domains were expressed with a C-terminal His-tag in CHO cells and purified.

Test [14] deals with T6, mouse EpCAM-ECD with C-terminal His-tag (expressed in CHO cells) (mouse, UniProt Q99JW5 24-266).
T6 construct: extracellular domain
T6 sequence (looked up): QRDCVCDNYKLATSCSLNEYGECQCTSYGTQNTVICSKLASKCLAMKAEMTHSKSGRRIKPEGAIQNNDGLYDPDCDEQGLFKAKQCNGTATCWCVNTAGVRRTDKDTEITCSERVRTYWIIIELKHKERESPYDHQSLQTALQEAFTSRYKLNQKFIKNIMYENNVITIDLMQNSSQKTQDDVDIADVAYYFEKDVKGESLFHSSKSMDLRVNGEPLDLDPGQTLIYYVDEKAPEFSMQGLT
The test is described as follows: ELISA on purified His-tagged ECDs.
From the text: as §7

The target in another test is T7, mouse EpCAM (mouse, UniProt Q99JW5 24-266).
T7 construct: extracellular domain; also called mouse EpCAM-ECD
T7 sequence (looked up): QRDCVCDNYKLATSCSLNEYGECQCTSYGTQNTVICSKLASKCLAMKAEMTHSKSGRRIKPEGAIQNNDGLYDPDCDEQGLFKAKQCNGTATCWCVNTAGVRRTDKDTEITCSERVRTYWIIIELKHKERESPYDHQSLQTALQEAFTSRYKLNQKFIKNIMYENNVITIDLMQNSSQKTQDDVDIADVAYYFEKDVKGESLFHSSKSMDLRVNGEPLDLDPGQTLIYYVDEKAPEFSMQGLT
The test is described as follows: hybridoma screening, ELISA.

The next test concerns the target T8, rat EpCAM (rat, UniProt O55159 24-266, limits assumed).
T8 sequence (looked up): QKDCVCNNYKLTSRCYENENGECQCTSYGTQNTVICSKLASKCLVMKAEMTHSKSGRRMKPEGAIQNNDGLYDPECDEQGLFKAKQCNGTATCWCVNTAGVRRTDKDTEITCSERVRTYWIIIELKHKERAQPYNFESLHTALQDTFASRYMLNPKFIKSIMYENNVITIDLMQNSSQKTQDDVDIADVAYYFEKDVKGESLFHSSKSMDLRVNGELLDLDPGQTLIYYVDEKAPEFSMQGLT
Put plainly: hybridoma screening, ELISA.

As usually defined, the EC50 is the concentration at which the effect is half-maximal.

T3 sequence (Q1WER1 24-314): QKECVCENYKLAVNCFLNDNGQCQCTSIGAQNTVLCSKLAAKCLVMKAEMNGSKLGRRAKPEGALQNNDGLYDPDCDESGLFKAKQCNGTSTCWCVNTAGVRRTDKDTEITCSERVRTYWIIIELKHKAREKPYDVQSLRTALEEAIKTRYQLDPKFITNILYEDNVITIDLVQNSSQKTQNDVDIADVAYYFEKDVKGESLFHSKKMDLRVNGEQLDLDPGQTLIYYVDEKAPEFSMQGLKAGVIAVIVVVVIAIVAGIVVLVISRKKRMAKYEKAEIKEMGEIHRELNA

B1: BAP-105.4-01-05 (antibody, V domains shown)
VH: EVQLVQSGAEVKKPGATVKISCKVSGYTFTSYWMHWIRQPPGKGLEWIGYIRPSTGYTEYNQKFKDRFTISRDNSKNTLYLQMNSLRAEDTAVYYCGRGDNWVGFANWGQGTLVTVSS
VL: EIVLTQSPDFQSVTPKEKVTITCSASSSISYMHWYQQKPGKAPKLLIYSTSNLASGVPDRFSGSGSGTDFTLKISRVEAEDVGVYYCHQWSTYETFGQGTKVEIK
notes: Humanized
With B1, the EC50 stood at 0.0134 µg/mL in test [1]; 0.49 µg/mL in test [3]; 50 µg/mL in [4]; 7.17 µg/mL in test [6]; 11.6 µg/mL in [7]; 0.342 µg/mL in [8]. For the same molecule, the EC50 came to 0.418 µg/mL in [9], 1.6 µg/mL in [10], 0.154 µg/mL in test [11] and 0.129 µg/mL in test [12]. Also, the pH inflection point in [2] stood at 6.35 pH; in test [5], 6.83 pH. Further, the binding result in test [13] and in test [14] was “no binding” each time.

B2: antibody of hybridoma clone 12C10F12 (antibody, V domains shown)
VH: QVQLQQSGAELAKPGASVKVSCKASGYTFTSYWMHWVKQRPGQGLEWIGYIRPSTGYTEYNQKFKDKATLTADKSSSTAYMQLSSLTFEDSAVYYCGRGDNWVGFANWGQGTLVTVSA
VL: QIVLTQSPAIMSASLGEEIALTCSASSSISYMHWYQQKSGTSPKLLIYSTSNLASGVPSRFSGSGSGTFYSLTISSVEAEDAADYFCHQWSTYHTFGSGTKLEIK
B2: the binding result with mouse EpCAM and with rat EpCAM was “no binding” in each case.

For the origin of these results see patent US20260053904A1 (BIOATLA, published 2026).
